Assay results from publication PMC11514480.
Like-named read-outs stand apart in the source and are kept apart here.

Tests used:
Assay in all cases: smFRET
[1] = biological target: T1, human RPA (RPA70-RPA32-RPA14) (human, UniProt P27694;P15927;P35244 1-616;1-270;1-121)
[2] = biological target: T1, human RPA (RPA70-RPA32-RPA14); remark: listed apart in the source
yeast RPA = yeast RPA (Saccharomyces cerevisiae, UniProt P22336;P26754;P26755 1-621;1-273;1-122)
yeast RPA, sequence (P22336 whole entry, chain 1 of 3): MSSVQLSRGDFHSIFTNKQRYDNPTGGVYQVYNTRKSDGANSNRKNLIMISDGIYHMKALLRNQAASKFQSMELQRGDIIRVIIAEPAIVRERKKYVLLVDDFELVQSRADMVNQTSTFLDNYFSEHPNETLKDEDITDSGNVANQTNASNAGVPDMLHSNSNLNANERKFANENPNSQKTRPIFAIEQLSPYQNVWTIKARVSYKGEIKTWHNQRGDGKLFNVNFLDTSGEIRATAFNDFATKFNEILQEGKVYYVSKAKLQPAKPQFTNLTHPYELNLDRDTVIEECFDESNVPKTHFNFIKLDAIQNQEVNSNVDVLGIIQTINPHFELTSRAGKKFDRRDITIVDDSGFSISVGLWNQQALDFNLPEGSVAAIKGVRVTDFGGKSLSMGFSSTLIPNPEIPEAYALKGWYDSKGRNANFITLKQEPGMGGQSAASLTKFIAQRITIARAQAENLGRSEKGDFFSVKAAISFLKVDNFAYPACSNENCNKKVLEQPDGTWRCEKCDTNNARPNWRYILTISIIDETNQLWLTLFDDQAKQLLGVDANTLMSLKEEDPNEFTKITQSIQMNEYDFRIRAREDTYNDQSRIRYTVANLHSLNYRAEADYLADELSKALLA
yeast RPA, sequence (P26754 whole entry, chain 2 of 3): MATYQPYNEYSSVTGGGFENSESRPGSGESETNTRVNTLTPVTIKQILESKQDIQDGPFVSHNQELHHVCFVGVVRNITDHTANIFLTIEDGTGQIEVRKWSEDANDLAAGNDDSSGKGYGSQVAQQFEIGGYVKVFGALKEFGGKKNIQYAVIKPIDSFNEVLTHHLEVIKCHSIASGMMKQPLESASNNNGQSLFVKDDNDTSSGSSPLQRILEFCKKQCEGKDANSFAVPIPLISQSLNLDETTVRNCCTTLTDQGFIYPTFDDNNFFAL
yeast RPA, sequence (P26755 whole entry, chain 3 of 3): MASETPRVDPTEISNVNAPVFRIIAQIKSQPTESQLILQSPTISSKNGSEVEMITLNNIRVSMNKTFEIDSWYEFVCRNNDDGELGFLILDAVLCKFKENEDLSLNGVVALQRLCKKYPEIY

T1 sequence (P27694 whole entry, chain 1 of 3): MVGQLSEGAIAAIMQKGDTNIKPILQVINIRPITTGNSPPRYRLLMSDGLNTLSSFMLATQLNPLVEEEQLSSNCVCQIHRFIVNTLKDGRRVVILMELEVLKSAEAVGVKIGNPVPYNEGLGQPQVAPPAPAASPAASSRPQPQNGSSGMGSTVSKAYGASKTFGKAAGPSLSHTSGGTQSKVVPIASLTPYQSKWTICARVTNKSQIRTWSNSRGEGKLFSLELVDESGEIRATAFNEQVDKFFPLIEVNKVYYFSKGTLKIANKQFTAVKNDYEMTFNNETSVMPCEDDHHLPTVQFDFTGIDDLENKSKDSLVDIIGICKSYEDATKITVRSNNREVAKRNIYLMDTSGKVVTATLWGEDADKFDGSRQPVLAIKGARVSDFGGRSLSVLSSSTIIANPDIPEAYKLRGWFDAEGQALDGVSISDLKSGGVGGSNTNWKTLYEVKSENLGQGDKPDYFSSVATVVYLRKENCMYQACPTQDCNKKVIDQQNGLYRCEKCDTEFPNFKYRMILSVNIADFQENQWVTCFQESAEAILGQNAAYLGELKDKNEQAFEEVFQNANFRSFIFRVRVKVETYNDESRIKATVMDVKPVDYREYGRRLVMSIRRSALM
T1 sequence (P15927 whole entry, chain 2 of 3): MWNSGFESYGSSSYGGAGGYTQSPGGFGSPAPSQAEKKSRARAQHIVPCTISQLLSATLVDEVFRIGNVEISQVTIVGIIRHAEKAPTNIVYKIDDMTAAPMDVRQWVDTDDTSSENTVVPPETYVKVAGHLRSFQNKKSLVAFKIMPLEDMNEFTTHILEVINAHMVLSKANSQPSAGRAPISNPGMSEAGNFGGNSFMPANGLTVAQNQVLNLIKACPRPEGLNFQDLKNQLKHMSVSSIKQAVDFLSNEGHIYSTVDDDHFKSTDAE
T1 sequence (P35244 whole entry, chain 3 of 3): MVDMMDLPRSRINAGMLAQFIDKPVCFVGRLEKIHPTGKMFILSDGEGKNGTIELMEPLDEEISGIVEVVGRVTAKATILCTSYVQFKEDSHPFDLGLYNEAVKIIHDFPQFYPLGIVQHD

| Binder | binding result [1] | binding result [2] | binding result (yeast RPA) |
| --- | --- | --- | --- |
| TTTTTTTTTTTTTTT (ssDNA) [(dT)15] | binds | – | – |
| TTTTTTTTTTTTTTTTTTTTTTTTTTTTTTTTTTTTTTTTTTTTT (ssDNA) [(dT)45] | binds | – | – |
| TTTTTTTTTTTTTTTTTTTTTTTTTTTTTT (ssDNA) [(dT)30] | binds | – | – |
| TTTTTTTTTTTTTTTTTTTTTTTTT (ssDNA) [(dT)25] | – | binds | binds |
